Measurements published in the Human Domainome abundance scans (Beltran et al. 2025).

B1: Histone H1t, residues 44 to 112; numbered along this chain, P22492 (parent)
chain: VSKLITEALSVSQERVGMSLVALKKALAAAGYDVEKNNSRIKLSLKSLVNKGILVQTRGTGASGSFKLS

Variants of: B1
Assay: abundance fitness (aPCA) (normalised: wild type 0, dead -1); higher = more abundant; growth selection in yeast, the domain comes from the species named
Conditions: Homo sapiens

Abundance fitness, by site and new letter:
D33: E 0.2, Q 0.042, I -0.121, M 0.115, L -0.034, K -0.119, V 0.029, W 0.259, R 0.036, P -0.214, N -0.254, H 0.143, S -0.021, A 0.063, F 0.243, Y 0.144, T -0.025
V34: T -0.068, A -0.171, G -0.306, I -0.123, H -0.4, D -0.327, Q -0.309, M -0.098, K -0.104, S -0.199, L -0.214, P -0.212, C -0.179, Y -0.472, E -0.346, R -0.268, W -0.252
L27: V -0.202, R -1.12, C -0.394, A -0.506, G -0.681, I -0.116, H -0.838, Q -1.06, K -0.999, N -0.906, P -1.06, D -0.677, T -0.696, S -0.746, M -0.159, W -0.371, F -0.221
K36: M -0.285, I -0.628, G -0.251, H -0.432, D -0.387, E -0.428, P -0.62, L -0.358, C -0.556, A -0.106, N -0.019
A28: W -0.327, N -0.18, D -0.258, L -0.087, V -0.098, C -0.175, S -0.114, I -0.059, F -0.231, R 0.003, E -0.197, G -0.106, M -0.089, Y -0.124
E35: P -0.31, H -0.137, Y -0.036, N -0.064, I -0.123, T -0.061, M -0.157, Q -0.084, S -0.134, K 0.05, F -0.307
A29: I -0.248, D -0.085, H -0.236, C -0.088, T -0.04, E 0.066, M -0.097, K 0.153, L -0.255, S -0.039, Q -0.081, V -0.215, F -0.276, W -0.323, P -0.491, R 0.002, G -0.223
G31: M -0.224, Q -0.268, P -0.434, T -0.259, S -0.264, L -0.297, A -0.202, F -0.285, E -0.89, V -0.149, I -0.316, Y -0.066, C -0.27, N -0.357, R -0.306, H -0.366, W -0.387, D -0.752
A26: R -0.415, V -0.064, M -0.033, S -0.121, L -0.138, N -0.401, I -0.171, F -0.172, P -0.906, H -0.167, Q -0.381, K 0.07, E -0.252, T -0.106
Y32: W -0.116, Q -0.121, K 0.064, H -0.052, L 0.032, N -0.114, T -0.193, I 0.022, F -0.072, S -0.14, P -0.228, C -0.391, R -0.055
A30: R 0.051, Y -0.266, S -0.09, H -0.312, W -0.15, P -0.364, V -0.158, C -0.136, M 0.021, I -0.318, L -0.224, N -0.271, E -0.404, T -0.048, G -0.162, F -0.368, D -0.328, Q -0.137
